The values that follow come from article PMC9370829 (Nature, 2022).

Sequences and labels used below:
B1: UvrA, individually purified (natural protein, E. coli, UniProt P0A698 1-940, looked up)
chain: MDKIEVRGARTHNLKNINLVIPRDKLIVVTGLSGSGKSSLAFDTLYAEGQRRYVESLSAYARQFLSLMEKPDVDHIEGLSPAISIEQKSTSHNPRSTVGTITEIHDYLRLLFARVGEPRCPDHDVPLAAQTVSQMVDNVLSQPEGKRLMLLAPIIKERKGEHTKTLENLASQGYIRARIDGEVCDLSDPPKLELQKKHTIEVVVDRFKVRDDLTQRLAESFETALELSGGTAVVADMDDPKAEELLFSANFACPICGYSMRELEPRLFSFNNPAGACPTCDGLGVQQYFDPDRVIQNPELSLAGGAIRGWDRRNFYYFQMLKSLADHYKFDVEAPWGSLSANVHKVVLYGSGKENIEFKYMNDRGDTSIRRHPFEGVLHNMERRYKETESSAVREELAKFISNRPCASCEGTRLRREARHVYVENTPLPAISDMSIGHAMEFFNNLKLAGQRAKIAEKILKEIGDRLKFLVNVGLNYLTLSRSAETLSGGEAQRIRLASQIGAGLVGVMYVLDEPSIGLHQRDNERLLGTLIHLRDLGNTVIVVEHDEDAIRAADHVIDIGPGAGVHGGEVVAEGPLEAIMAVPESLTGQYMSGKRKIEVPKKRVPANPEKVLKLTGARGNNLKDVTLTLPVGLFTCITGVSGSGKSTLINDTLFPIAQRQLNGATIAEPAPYRDIQGLEHFDKVIDIDQSPIGRTPRSNPATYTGVFTPVRELFAGVPESRARGYTPGRFSFNVRGGRCEACQGDGVIKVEMHFLPDIYVPCDQCKGKRYNRETLEIKYKGKTIHEVLDMTIEEAREFFDAVPALARKLQTLMDVGLTYIRLGQSATTLSGGEAQRVKLARELSKRGTGQTLYILDEPTTGLHFADIQQLLDVLHKLRDQGNTIVVIEHNLDVIKTADWIVDLGPEGGSGGGEILVSGTPETVAECEASHTARFLKPML
B2: UvrB, individually purified (natural protein, E. coli, UniProt P0A8F8 1-673, looked up)
chain: MSKPFKLNSAFKPSGDQPEAIRRLEEGLEDGLAHQTLLGVTGSGKTFTIANVIADLQRPTMVLAPNKTLAAQLYGEMKEFFPENAVEYFVSYYDYYQPEAYVPSSDTFIEKDASVNEHIEQMRLSATKAMLERRDVVVVASVSAIYGLGDPDLYLKMMLHLTVGMIIDQRAILRRLAELQYARNDQAFQRGTFRVRGEVIDIFPAESDDIALRVELFDEEVERLSLFDPLTGQIVSTIPRFTIYPKTHYVTPRERIVQAMEEIKEELAARRKVLLENNKLLEEQRLTQRTQFDLEMMNELGYCSGIENYSRFLSGRGPGEPPPTLFDYLPADGLLVVDESHVTIPQIGGMYRGDRARKETLVEYGFRLPSALDNRPLKFEEFEALAPQTIYVSATPGNYELEKSGGDVVDQVVRPTGLLDPIIEVRPVATQVDDLLSEIRQRAAINERVLVTTLTKRMAEDLTEYLEEHGERVRYLHSDIDTVERMEIIRDLRLGEFDVLVGINLLREGLDMPEVSLVAILDADKEGFLRSERSLIQTIGRAARNVNGKAILYGDKITPSMAKAIGETERRREKQQKYNEEHGITPQGLNKKVVDILALGQNIAKTKAKGRGKSRPIVEPDNVPMDMSPKALQQKIHELEGLMMQHAQNLEFEEAAQIRDQLHQLRELFIAAS

The data set “cross-linking” deals with the molecule itself. As to the kind of experiment: cross-linking.
For data set [1], the target named is B1. In words: cross-linking.

B1: in the data set “cross-linking”, the binding result is “binds”. Consider B2, for which the binding result in data set [1] was “binds”.
